Measurements: IntAct's records for PubMed 23274085

B1: Sestrin-2 (Homo sapiens), P58004 (parent)
chain: MIVADSECRAELKDYLRFAPGGVGDSGPGEEQRESRARRGPRGPSAFIPVEEVLREGAESLEQHLGLEALMSSGRVDNLAVVMGLHPDYFTSFWRLHYLLLHTDGPLASSWRHYIAIMAAARHQCSYLVGSHMAEFLQTGGDPEWLLGLHRAPEKLRKLSEINKLLAHRPWLITKEHIQALLKTGEHTWSLAELIQALVLLTHCHSLSSFVFGCGILPEGDADGSPAPQAPTPPSEQSSPPSRDPLNNSGGFESARDVEALMERMQQLQESLLRDEGTSQEEMESRFELEKSESLLVTPSADILEPSPHPDMLCFVEDPTFGYEDFTRRGAQAPPTFRAQDYTWEDHGYSLIQRLYPEGGQLLDEKFQAAYSLTYNTIAMHSGVDTSVLRRAIWNYIHCVFGIRYDDYDYGEVNQLLERNLKVYIKTVACYPEKTTRRMYNLFWRHFRHSEKVHVNLLLLEARMQAALLYALRAITRYMT

Variants of: B1
Settings: with keap1_human KEAP1, Q14145
Sequence of keap1_human KEAP1, Q14145 (Q14145 whole entry): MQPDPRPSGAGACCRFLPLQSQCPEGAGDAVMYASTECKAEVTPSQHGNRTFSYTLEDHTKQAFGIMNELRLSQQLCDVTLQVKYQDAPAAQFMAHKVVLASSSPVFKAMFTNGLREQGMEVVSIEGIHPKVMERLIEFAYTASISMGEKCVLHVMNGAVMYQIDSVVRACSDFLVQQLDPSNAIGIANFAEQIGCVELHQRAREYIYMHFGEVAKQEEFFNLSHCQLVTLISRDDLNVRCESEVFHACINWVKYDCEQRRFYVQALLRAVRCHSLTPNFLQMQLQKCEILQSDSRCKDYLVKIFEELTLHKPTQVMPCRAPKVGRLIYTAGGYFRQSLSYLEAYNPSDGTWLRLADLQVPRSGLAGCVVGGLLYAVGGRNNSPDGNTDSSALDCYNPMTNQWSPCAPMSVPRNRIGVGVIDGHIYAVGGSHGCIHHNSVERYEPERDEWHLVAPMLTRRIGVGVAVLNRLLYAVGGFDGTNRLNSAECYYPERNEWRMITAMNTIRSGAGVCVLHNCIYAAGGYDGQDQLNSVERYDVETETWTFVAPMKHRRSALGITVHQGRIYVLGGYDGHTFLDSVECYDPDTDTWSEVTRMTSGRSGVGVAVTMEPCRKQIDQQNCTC

Row | Variant | effect of a mutation on the interaction
1 | C125S | with no effect
